Assay results published in patent US20100239579A1.

Target: human SIRPα (signal regulatory protein alpha), full-length (human) (UniProt P78324)
Experiment: cell-based or functional assay

Sequence of human SIRPα (signal regulatory protein alpha), full-length (human) (P78324 31-504): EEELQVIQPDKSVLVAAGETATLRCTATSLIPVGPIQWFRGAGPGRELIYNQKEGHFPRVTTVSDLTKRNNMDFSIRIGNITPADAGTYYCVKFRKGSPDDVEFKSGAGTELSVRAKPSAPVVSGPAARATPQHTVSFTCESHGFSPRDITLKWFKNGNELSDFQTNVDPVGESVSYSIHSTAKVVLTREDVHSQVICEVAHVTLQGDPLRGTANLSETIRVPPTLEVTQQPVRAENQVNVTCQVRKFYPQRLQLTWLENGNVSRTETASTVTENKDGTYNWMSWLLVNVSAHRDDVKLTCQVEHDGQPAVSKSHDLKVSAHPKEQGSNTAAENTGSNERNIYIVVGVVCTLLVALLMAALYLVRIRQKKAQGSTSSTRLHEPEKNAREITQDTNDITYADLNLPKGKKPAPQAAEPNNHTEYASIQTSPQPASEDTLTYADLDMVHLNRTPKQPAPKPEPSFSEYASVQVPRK

- inhibition of FSL-1 mediated TNF-α production of human DCs by hCD47-hFc immobilized on anti-human Fc coated plates: 78 ng/mL
- inhibition of SAC-induced IL-23 secretion in human DCs: 11 ng/mL
Substance: hCD47-hFc (human CD47 extracellular Ig-V domain fused to the Fc region of human IgG1), Example 8 (from UniProt Q08722 19-142) (Fc fusion)
